The values that follow come from patent US6770448B2, “Fluorescent amyloid Aβ peptides and uses thereof” (The Regents of the University of California, priority 1997, dated 2004).

The nature of data set [1]: Gel filtration chromatography (Superdex 75 HR 10/30), oligomeric structure. It counts as physicochemical. The settings on record: Superdex 75, Buffer A. For orientation: In gel filtration, larger molecules generally elute earlier.
Description: The peptides were dissolved in DMSO for 30 minutes and then ten fold diluted in buffer A at a final protein concentration of 5-10 μM. A 200 μl aliquot was loaded onto a Superdex 75HR 10/30 column and eluted at a rate of 0.4 ml/min.
Gel filtration analysis was performed with a Pharmacia Superdex 75 HR 10/30 column using a Waters 490 multiple wavelength UV absorbance detector and Hewlett Packard 3250 fluorescence detector. Data were collected with a Waters Maxima chromatography data system. The running buffer used was 50 mM Tris, 0.1 M NaCl, pH 7.4 (Buffer A) in the presence of 10% or 2% DMSO. The column was calibrated with the following molecular weight standards: thyroglobulin, bovine serum albumin, ovalbumin, soybean trypsin inhibitor, ubiquitin, aprotinin, and insulin β-chain. The peptides were detected by UV absorbance at 280 nm and by fluorescence at 482 and 520 nm for IAEDANS and FM respectively.
Data set [2] can be described thus: Denaturation (unfolding) of Aβ in DMSO monitored by tyrosine or AEDANS fluorescence. It counts as physicochemical. How it is done: FIG. 3 is a graph illustrating the unfolding of Aβ measured by tyrosine fluorescence and 1,5-IAEDANS fluorescence. […] The protein concentration was 5-10 μM of Aβ.
For refolding experiments, samples were incubated in 100% DMSO for 1 hour at room temperature, and refolding was initiated by ten or fifty times dilution of the solvent in Tris buffered solution. The concentration of peptide ranged between 3 and 10 μM.
Absorption measurements were measured with a Perkin Elmer Lambda 3B UV-Vis spectrophotometer. Fluorescence spectra (excitation band pass 4 nm; emission band pass 8 nm) were measured either on an Aminco SLM 48000 or a SPEX Fluorolog F112A spectrofluorometer. Intrinsic tyrosine fluorescence was measured from 285 to 400 nm upon excitation at 275 nm. […] The lifetime measurements for FM were acquired using the 488 nm line of argon ion laser for excitation using a multiharmonic frequency-domain spectrofluorometer (Aminco 48000S).

In the case of “14C-labeled Aβ 1-40: Aβ synthesized by incorporation of Fmoc-14C-Ala at position 2, 36 mCi/mmol”, the “elution position on gel filtration” value in data set [1] was “eluted at the position expected for a dimer”.

On to “AβC4FM: Aβ with cys in position 4 and labeled with FM”, for which the “unfolding curve compared with AβC25-AEDANS” value in data set [2] was “identical unfolding curves”.

For the substance “AβC7FM: Aβ with cys in position 7 and labeled with FM”, the “unfolding curve compared with AβC25-AEDANS” value in data set [2] is on record as “identical unfolding curves”.
